Source: US9605038B2, “Fusion peptide comprising dhFas-1 domain and MMP substrate and use thereof for preventing and treating rheumatoid arthritis” (Kyungpook National University Industry-Academic Cooperation …, priority 2010, dated 2017)
Residue numbers refer to the chain shown, from its start.

B1: MFK23: fusion peptide having sequential links of mdhFas-1, MMP2 substrate GPLGVRG (SEQ ID NO: 5), and QERGDSLA (SEQ ID NO: 10) (protein)
chain: QAMPPEELNKLLANAKELTNILKYHIGDEILVSGGIGALVRLKSLQGDKLEVSSKNNVVSVNKEPVAETDIMEFGPLGVRGVDGQERGDSLAGLE
modifications: MFK23
B2: MFK24: fusion peptide having sequential links of mdhFas-1, MMP1 substrate GPQGIAG (SEQ ID NO: 6), and QERGDSLA (SEQ ID NO: 10) (protein)
chain: B1 chain with L77Q, V79I, R80A
modifications: MFK24

Experiments:
MMP1 = biological target: T1, MMP1 (Homo sapiens, UniProt P03956); assay: Enzymatic digestion test, MMP1; type: biochemical; details: 3 ug peptide, MMP1 5, 10, 50 ng, 37° C. 4 hours
T1 sequence (P03956 100-469): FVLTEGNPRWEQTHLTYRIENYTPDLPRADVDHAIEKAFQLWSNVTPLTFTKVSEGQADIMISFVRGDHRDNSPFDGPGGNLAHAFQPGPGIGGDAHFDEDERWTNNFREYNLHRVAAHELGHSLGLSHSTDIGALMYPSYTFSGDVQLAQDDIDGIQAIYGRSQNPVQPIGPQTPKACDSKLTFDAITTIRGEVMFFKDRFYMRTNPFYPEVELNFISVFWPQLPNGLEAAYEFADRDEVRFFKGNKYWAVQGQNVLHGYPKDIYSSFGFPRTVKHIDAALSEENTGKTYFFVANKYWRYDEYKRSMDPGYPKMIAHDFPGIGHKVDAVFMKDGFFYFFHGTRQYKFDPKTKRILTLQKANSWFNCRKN
Protocol: 3 ug of synthesized mdhFas-1-MMPsubstrate structure modified protein, together with MMP1 (5 ng, 10 ng and 50 ng), MMP2 (100 ng, 200 ng and 800 ng), MMP3 (10 ng, 50 ng and 100 ng), cathepsin D (5 ng, 10 ng and 50 ng), cathepsin L (100 ng, 200 ng and 800 ng), and cathepsin K (10 ng, 50 ng and 100 ng), was mixed with enzyme buffer (150 mM NaCl, 5 mM. CaCl2, 20 mM Tris-HCl pH7.5), and reacted at 37° C. for 4 hours. The resultant product was subjected to electrophoresis through 15% polyacrylamide gel, transferred to a Nitrocellulose Membrane (Schleicher & Schuell), blocked at room temperature for 1 hour with TBST solution containing 3% BSA (20 mmole/L Tris-HCl, 137 mmole//l NaCl, 0.1% Tween-20), washed TBST solution three times (each for 10 minutes), and reacted with primary antibody (anti-Histidine or anti-Bigh3) for 1 hour. The resultant product was washed with TBST solution three times (each for 10 minutes), reacted with a secondary antibody conjugated to horseradish peroxidase (HRP) for 1 hour, washed TBST solution three times (each for 10 minutes), and visualized by ECL (Amersham Biosciences, UK) so as to detect the change in the amount of mdhFas-1-MMPsubstrate-RGD structural peptide.

[1] = biological target: T2, MMP-1 secreted from a human Synovial membrane cell (Homo sapiens, UniProt P03956); assay: Culture analysis of enzymatic digestion in IL-1β stimulated human FLS; type: cell-based; details: 1 uM peptide, 3 and 6 hours, IL-1β 0.1 ng/ml
T2 construct: MFK24 peptide cleaved by MMP-1 secreted from a human Synovial membrane cell; endogenous in cells; host or cells: human fibroblast-like synoviocytes (human synovial membrane cell line) stimulated with 0.1 ng/ml IL-1β
T2 sequence (P03956 100-469): T1 sequence (P03956 100-469)
Protocol: In order to determine if MFK24 is well adhered to cells and in actuality cleaved by MMP-1, human FLS (fibroblast-like synovicyte) was treated with IL-1β so as to amplify the expression of MMP-1. Then, MFK24 was added in a culture medium and cultured.
In a culture medium of DMEM+10% FBS (fetal bovine serum)+2% penicillin, streptomycin, a human Synovial membrane cell line was cultured for 2 days, added with 0.1 ng/ml IL-1β, and stimulated for 24 hours. The cell line was treated with mdhFas-1-MMPsubstrate-RGD structural peptide (1 uM), and stimulated for 3 hours and 6 hours. Then, by using an anti-βig-h3 antibody recognizing mdhfas-1, and an anti-histidine antibody recognizing C-terminal histidine-tag, the amount of peptide was determined.

[2] = test system: TNF-a, RANKL, IL-1β, CCL-2, MMP-1, MMP-3, IL-6, VCAM-1; assay: Semiquantitative reverse transcription PCR of inflammatory mediators in CIA mouse foot tissue; type: in vivo; details: CIA mouse articulation tissue, FIG. 21
Protocol: The distribution of inflammation in the foot tissue may be somewhat differently observed according to the regions, and its quantitative research is difficult. Thus, in the hind leg of a mouse CIA model treated with MFK24, the change in inflammatory mediators according to the onset of arthritis was measured by a semiquantitative reverse transcription PCR method using a Taqman probe, as described below.
From a mouse CIA model, a foot tissue was separated, and its skin was removed. The remaining tissue was grinded by a tissue homogenizer, and an extraction reagent (Easy-spim™, Intron) was used to extract all RNAs. They were quantified, and for 7 μg of RNA, a reverse transcriptase reaction was carried out by using AMV reverse transcriptase (Roche, 0.5 ul), oligo dT (Roche, 1 ul), and 10 mM dNTP (Takara, 2 ul) RNase inhibitor (Roche, 0.1 ul). For TNF-a, RANKL, IL-1β, CCL-2, MMP-1, MMP-3, IL-6, VCAM-1 and 18S RNA of a mouse, semiquantitative PCR was performed by using primers (Bioneer, Daejeon) and a Taqman probe (Roche, Germany) in LC480 (Roche, Germany), so as to determine the number of transcripts. Quantitative analysis of the transcripts was performed through comparison with 18S RNA transcripts. The primer pairs for the semiquantitative PCR are noted in [table8].

ICAM-1 and RANKL = assay: Immunoblot of ICAM-1 and RANKL in CIA mouse model; type: in vivo

Row | Molecule | cleavage through treatment with MMP-1 (MMP1) | cleavage in FLS culture (anti-histidine vs anti-βig-h3) [1] | number of transcripts of inflammatory mediators compared to arthritis control group [2] | efficacy on ICAM-1 and RANKL expression at low dose (ICAM-1 and RANKL; 0.1 mg/kg) | expression of ICAM-1 and RANKL in the inflammatory region (ICAM-1 and RANKL; according to doses, FIG. 22)
1 | B1 | not cleaved |  |  |  | 
2 | B2 | concentration-dependently cleaved | cleaved by MMP-1 secreted from a Synovial membrane cell | significantly reduced | the high efficacy was maintained | reduced
